Measured values: US20250163162A1

Biological target: IL10 receptor (IL10R) (human) (UniProt Q13651)
Test: cell-based or functional assay

Chain of IL10 receptor (IL10R) (human) (Q13651 22-578, chain 1 of 2): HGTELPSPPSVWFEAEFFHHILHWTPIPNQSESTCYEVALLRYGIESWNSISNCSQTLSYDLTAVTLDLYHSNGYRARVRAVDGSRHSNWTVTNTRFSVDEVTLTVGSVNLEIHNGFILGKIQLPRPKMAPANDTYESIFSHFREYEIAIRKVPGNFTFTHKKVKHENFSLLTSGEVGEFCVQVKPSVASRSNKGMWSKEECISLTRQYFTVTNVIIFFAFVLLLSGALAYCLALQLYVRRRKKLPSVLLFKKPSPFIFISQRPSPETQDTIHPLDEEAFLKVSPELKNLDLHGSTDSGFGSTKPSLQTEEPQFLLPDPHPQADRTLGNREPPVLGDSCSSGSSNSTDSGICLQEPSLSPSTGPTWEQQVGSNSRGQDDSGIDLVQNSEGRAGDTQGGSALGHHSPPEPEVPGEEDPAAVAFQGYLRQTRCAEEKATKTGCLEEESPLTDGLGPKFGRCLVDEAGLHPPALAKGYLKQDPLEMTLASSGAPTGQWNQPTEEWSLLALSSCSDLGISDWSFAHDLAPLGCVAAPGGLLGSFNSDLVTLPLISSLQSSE
Chain of IL10 receptor (IL10R) (human) (Q08334 20-325, chain 2 of 2, further chain): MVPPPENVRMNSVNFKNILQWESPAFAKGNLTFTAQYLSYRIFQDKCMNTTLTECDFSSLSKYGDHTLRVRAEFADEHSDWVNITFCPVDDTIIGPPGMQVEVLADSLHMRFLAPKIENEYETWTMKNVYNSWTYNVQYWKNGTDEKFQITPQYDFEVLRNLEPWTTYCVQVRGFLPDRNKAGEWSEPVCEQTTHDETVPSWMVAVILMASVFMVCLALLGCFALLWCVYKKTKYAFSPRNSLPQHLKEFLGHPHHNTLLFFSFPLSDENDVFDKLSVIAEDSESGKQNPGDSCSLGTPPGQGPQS

pSTAT3 MFI, B cells, 0.0001 nM (unstimulated 1193.5): 1160 MFI
pSTAT3 MFI, B cells, 0.001 nM (unstimulated 1193.5): 1140 MFI
pSTAT3 MFI, B cells, 0.01 nM (unstimulated 1193.5): 1220 MFI
pSTAT3 MFI, B cells, 0.1 nM (unstimulated 1193.5): 1780 MFI
pSTAT3 MFI, B cells, 1 nM (unstimulated 1193.5): 3950 MFI
pSTAT3 MFI, B cells, 10 nM (unstimulated 1193.5): 3930 MFI
pSTAT3 MFI, B cells, 100 nM (unstimulated 1045): 2400 MFI
pSTAT3 MFI, B cells, 100 nM (unstimulated 1193.5): 2620 MFI
pSTAT3 MFI, CD4+ T cells, 100 nM (unstimulated 1778): 9660 MFI
pSTAT3 MFI, CD4 T cells, 0.0001 nM (unstimulated 1887): 1970 MFI
pSTAT3 MFI, CD4 T cells, 0.001 nM (unstimulated 1887): 1880 MFI
pSTAT3 MFI, CD4 T cells, 0.01 nM (unstimulated 1887): 2220 MFI
pSTAT3 MFI, CD4 T cells, 0.1 nM (unstimulated 1887): 5170 MFI
pSTAT3 MFI, CD4 T cells, 1 nM (unstimulated 1887): 10700 MFI
pSTAT3 MFI, CD4 T cells, 10 nM (unstimulated 1887): 10800 MFI
pSTAT3 MFI, CD4 T cells, 100 nM (unstimulated 1887): 9560 MFI
pSTAT3 MFI, CD8+ T cells, 100 nM (unstimulated 1288): 8810 MFI
pSTAT3 MFI, CD8 T cells, 0.0001 nM (unstimulated 1446): 1700 MFI
pSTAT3 MFI, CD8 T cells, 0.001 nM (unstimulated 1446): 1430 MFI
pSTAT3 MFI, CD8 T cells, 0.01 nM (unstimulated 1446): 1720 MFI
pSTAT3 MFI, CD8 T cells, 0.1 nM (unstimulated 1446): 4300 MFI
pSTAT3 MFI, CD8 T cells, 1 nM (unstimulated 1446): 8890 MFI
pSTAT3 MFI, CD8 T cells, 10 nM (unstimulated 1446): 9890 MFI
pSTAT3 MFI, CD8 T cells, 100 nM (unstimulated 1446): 9010 MFI
pSTAT3 MFI, Monocytes, 0.0001 nM (unstimulated 2116): 2050 MFI
pSTAT3 MFI, Monocytes, 0.001 nM (unstimulated 2116): 2140 MFI
pSTAT3 MFI, Monocytes, 0.01 nM (unstimulated 2116): 2840 MFI
pSTAT3 MFI, Monocytes, 0.1 nM (unstimulated 2116): 9550 MFI
pSTAT3 MFI, Monocytes, 1 nM (unstimulated 2116): 28900 MFI
pSTAT3 MFI, Monocytes, 10 nM (unstimulated 2116): 30900 MFI
pSTAT3 MFI, Monocytes, 100 nM (unstimulated 1787): 27100 MFI
pSTAT3 MFI, Monocytes, 100 nM (unstimulated 2116): 26600 MFI
pSTAT3 MFI, NK cells, 0.0001 nM (unstimulated 1315): 1310 MFI
pSTAT3 MFI, NK cells, 0.001 nM (unstimulated 1315): 1270 MFI
pSTAT3 MFI, NK cells, 0.01 nM (unstimulated 1315): 1380 MFI
pSTAT3 MFI, NK cells, 0.1 nM (unstimulated 1315): 2280 MFI
pSTAT3 MFI, NK cells, 1 nM (unstimulated 1315): 4620 MFI
pSTAT3 MFI, NK cells, 10 nM (unstimulated 1315): 5700 MFI
pSTAT3 MFI, NK cells, 100 nM (unstimulated 1149): 4380 MFI
pSTAT3 MFI, NK cells, 100 nM (unstimulated 1315): 4790 MFI
Substance: wild-type human IL10 (wt hIL10) (from UniProt P22301 19-178) (ligand)
